Biological target: 重组HSP90蛋白 (recombinant HSP90 protein expressed in E. coli BL21 from pET-30a-HSP90) (human) (UniProt P08238)
Test: indirect ELISA, HSP90 recombinant protein coated at 1 μg/mL, antibody diluted 1:10^3 to 1:10^6, HRP goat anti-mouse

B1: 抗HSP90单克隆抗体 46-2-C9 (anti-HSP90 monoclonal antibody from hybridoma 46-2-C9, purified from mouse ascites) (antibody, V domains shown)
VH: EVQLQQSGPELVKPGASVKISCKASGYSFTGYYMHWVKQSHVKSLEWIGRINPYNGATSYNQNFKDKASLTVDKSSSTAYMELHSLTSEDSAVYYCARSKKYGNYTWFAYWGQGTLVTVSA
VL: DVQMTQSQKFMSTSVGDRVSVTCKASQNVGTNVAWYQQKPGQSPKALIYSASYRYSGVPDRFTGSGSGTDFTLTISNVQSEDLAEYFCQQYNSYIFTFGSGTKLEIKR
效价 (ELISA titer, dilution factor) (dilution factor): 100000

— CN110684105A
